B1: Protein phosphatase 2C homolog 4 (Schizosaccharomyces pombe (strain ATCC 38366 / 972)), O14156 (parent)
chain: MSIRFLKRLRAPLYIQNAYCSKNYFYRSFIQYYSPSNGPYLKISMNKAPQSLGLCTARGDSPTNQDRMAYGYLNNLKDTTNRDSPFFYGLFDGHGGTECSEFLSTNLGKIIENQDLNDTEKILKEVHSVGGYMAGLKPPFSLRTVLQSRDEDLLWRARLYYSFLQADMDYLTNYARPSPDSAVPGAVGTVAIITSKNNLSYWESDSYIIHLAHVGDTRALLCDSRTGRAHRLTFQHHPADVEEARRLRRYNMGFSRDSFGQKRFAWVANTRSFGDGYKLKKLGVVAEPQLTSIHSLRDDWSFLTLLSDGITDVVSDDEVVDIIKLSESPQDAANNIIRYAQNVGAVDDITCLVVRLPGWKKRTINDFTKNLRLEKSAYHPRRS
partner: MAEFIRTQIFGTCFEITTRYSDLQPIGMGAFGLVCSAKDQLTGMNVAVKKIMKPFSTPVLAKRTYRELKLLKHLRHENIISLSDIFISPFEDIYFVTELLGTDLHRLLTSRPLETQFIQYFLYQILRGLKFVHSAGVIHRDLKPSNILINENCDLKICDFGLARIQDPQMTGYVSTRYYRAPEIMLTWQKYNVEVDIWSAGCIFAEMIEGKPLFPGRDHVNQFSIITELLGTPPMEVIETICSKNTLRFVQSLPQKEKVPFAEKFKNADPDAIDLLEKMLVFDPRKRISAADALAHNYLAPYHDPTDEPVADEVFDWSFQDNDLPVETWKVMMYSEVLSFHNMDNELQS

Columns and labels:
Conditions in all cases: with hog1_schpo sty1, Q09892
hog1_schpo sty1, Q09892 [1] = variants of: B1
hog1_schpo sty1, Q09892 [2] = variants of: B1; remark: listed apart in the source
hog1_schpo sty1, Q09892 [3] = variants of: B1; remark: listed apart in the source

| Variant | effect of a mutation on the interaction (hog1_schpo sty1, Q09892 [1]) | effect of a mutation on the interaction (hog1_schpo sty1, Q09892 [2]) | effect of a mutation on the interaction (hog1_schpo sty1, Q09892 [3]) |
| --- | --- | --- | --- |
| MSIRFLKRLAAPLYIQNAYCSKNYFYRSFIQYYSPSNGPYLKISMNKAPQSLGLCTARGDSPTNQDRMAYGYLNNLKDTTNRDSPFFYGLFDGHGGTECSEFLSTNLGKIIENQDLNDTEKILKEVHSVGGYMAGLKPPFSLRTVLQSRDEDLLWRARLYYSFLQADMDYLTNYARPSPDSAVPGAVGTVAIITSKNNLSYWESDSYIIHLAHVGDTRALLCDSRTGRAHRLTFQHHPADVEEARRLRRYNMGFSRDSFGQKRFAWVANTRSFGDGYKLKKLGVVAEPQLTSIHSLRDDWSFLTLLSDGITDVVSDDEVVDIIKLSESPQDAANNIIRYAQNVGAVDDITCLVVRLPGWKKRTINDFTKNLRLEKSAYHPRRS [R10A] | disrupting interaction | decreasing interaction |  |
| MSIRFLKALRAPLYIQNAYCSKNYFYRSFIQYYSPSNGPYLKISMNKAPQSLGLCTARGDSPTNQDRMAYGYLNNLKDTTNRDSPFFYGLFDGHGGTECSEFLSTNLGKIIENQDLNDTEKILKEVHSVGGYMAGLKPPFSLRTVLQSRDEDLLWRARLYYSFLQADMDYLTNYARPSPDSAVPGAVGTVAIITSKNNLSYWESDSYIIHLAHVGDTRALLCDSRTGRAHRLTFQHHPADVEEARRLRRYNMGFSRDSFGQKRFAWVANTRSFGDGYKLKKLGVVAEPQLTSIHSLRDDWSFLTLLSDGITDVVSDDEVVDIIKLSESPQDAANNIIRYAQNVGAVDDITCLVVRLPGWKKRTINDFTKNLRLEKSAYHPRRS [R8A] | disrupting interaction | decreasing interaction |  |
| MSIRFLKRLRAPLYIQNAYCSKNYFYASFIQYYSPSNGPYLKISMNKAPQSLGLCTARGDSPTNQDRMAYGYLNNLKDTTNRDSPFFYGLFDGHGGTECSEFLSTNLGKIIENQDLNDTEKILKEVHSVGGYMAGLKPPFSLRTVLQSRDEDLLWRARLYYSFLQADMDYLTNYARPSPDSAVPGAVGTVAIITSKNNLSYWESDSYIIHLAHVGDTRALLCDSRTGRAHRLTFQHHPADVEEARRLRRYNMGFSRDSFGQKRFAWVANTRSFGDGYKLKKLGVVAEPQLTSIHSLRDDWSFLTLLSDGITDVVSDDEVVDIIKLSESPQDAANNIIRYAQNVGAVDDITCLVVRLPGWKKRTINDFTKNLRLEKSAYHPRRS [R27A] | disrupting interaction |  | decreasing interaction |

Source: IntAct's records for PubMed 22139357
